# Data as given in article PMC7243059 (ACS nano, 2019).
# “And” between values parts separate entries of the source, which are not always exact repeats. Equal entries are not always repeated. Where two headings read alike, the source gives them in different places.
# B1: Hepatitis B virus capsid protein assembly domain (cp149) dimer (domain or fragment)
# chain: MDIDPYKEFGATVELLSFLPSDFFPSVRDLLDTAAALYRDALESPEHCSPHHTALRQAILCWGDLMTLATWVGTNLEDPASRDLVVSYVNTNVGLKFRQLLWFHISCLTFGRETVLEYLVSFGVWIRTPPAYRPPNAPILSTLPETTVV
# Legend:
# SAXS [1] = molecular target: the molecule itself; test: SAXS
# SAXS [2] = molecular target: the molecule itself; test: SAXS; remark: listed apart in the source
protein,measurement,setting,value
B1,stoichiometry N,SAXS [1],240 monomers and 180 monomers
same,stoichiometry N,SAXS [2],2
